Laboratory results published in the supplement of paper PMC10126150.
± gives the standard deviation of the averaged measurements.

tested on: ATP; test: switch fluorescence ratio, 500 uM ATP over buffer (Cy3 cluster intensity, sum of 5 cycles each) (fold (ratio)); higher = stronger signal-on switching upon ATP binding; sequences stand for … in TCGTCGGCAGCGTCAGATGTGTATAAGAGACAGTTTTTTTTTTTTTTTTTTTTTTTTT…TC; details: aptamer strand: ATP DNA aptamer (quencher-CACCTGGGGGAGTATTGCGGAGGAAGG + anchor), 100 nM annealed; ATP concentration: 500 uM
Method in brief: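 Five buffer/ATP imaging cycles were run on Cy3-labelled switching-strand clusters on a modified Illumina MiSeq flow-cell, with NaOH stripping and re-annealing between cycles. In each cycle, clusters annealed to 100 nM quencher-labelled ATP aptamer were imaged in selection buffer, then after 15 min with 500 uM ATP at 22 °C. Per cluster, the fluorescence ratio is summed target-cycle over summed buffer-cycle Cy3 intensity, averaged per switch-domain sequence. Only clusters within 100-1000 RFU were kept.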
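Also: ATP exposure 15 min at 22 °C before imaging.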

| Sequence | switch fluorescence ratio |
| --- | --- |
| TAGGATTGG | 0.971 ± 0.015 |
| TAGGATTGTG | 0.9991 ± 0.0081 |
| TAGGCAATCT | 1.25 ± 0.092 |
| TAGGCAGCGG | 0.991 ± 0.023 |
| TAGGCCAGTA | 1.024 ± 0.0091 |
| TAGGCCCCTG | 0.985 ± 0.041 |
| TAGGCCTAAT | 0.9715 ± 0.003 |
| TAGGCGGCGA | 1 ± 0.022 |
| TAGGCGGGGA | 1.07 ± 0.059 |
| TAGGCGTCTG | 1 ± 0.012 |
| TAGGCTGAAA | 0.9906 ± 0.0024 |
| TAGGCTGTTA | 0.995 ± 0.036 |
| TAGGCTTATG | 0.9786 ± 0.0037 |
| TAGGCTTTTG | 1.03 ± 0.056 |
| TAGGGAAAAT | 0.9833 ± 0.0029 |
| TAGGGAAACT | 1.21 ± 0.26 |
| TAGGGAACGT | 1.04 ± 0.04 |
| TAGGGAAGAG | 0.996 ± 0.041 |
| TAGGGAATGA | 1 ± 0.016 |
| TAGGGAATTA | 1.01 ± 0.012 |
| TAGGGACGCA | 1.16 ± 0.018 |
| TAGGGACTCT | 0.995 ± 0.014 |
| TAGGGAGATG | 0.996 ± 0.056 |
| TAGGGAGGGT | 1.11 ± 0.2 |
| TAGGGATTGG | 1.01 ± 0.039 |

| Sequence | switch fluorescence ratio |
| --- | --- |
| TAGGGCGCCA | 0.995 ± 0.057 |
| TAGGGGAAAA | 1.02 ± 0.019 |
| TAGGGGAATA | 1.01 ± 0.044 |
| TAGGGGAGAA | 1.01 ± 0.014 |
| TAGGGGCTTT | 1.04 ± 0.062 |
| TAGGGGGCCA | 1.014 ± 0.004 |
| TAGGGGGGAT | 0.992 ± 0.035 |
| TAGGGGGGT | 0.9765 ± 0.0032 |
| TAGGGGGTCA | 1 ± 0.022 |
| TAGGGGGTT | 1.01 ± 0.026 |
| TAGGGGTCCA | 0.987 ± 0.018 |
| TAGGGGTCTG | 1.032 ± 0.0059 |
| TAGGGGTGCC | 0.98 ± 0.034 |
| TAGGGGTGCG | 1 ± 0.038 |
| TAGGGGTGGT | 0.984 ± 0.032 |
| TAGGGTATGG | 0.9792 ± 0.0083 |
| TAGGGTGGGG | 0.99 ± 0.072 |
| TAGGGTTCGC | 1.06 ± 0.082 |
| TAGGGTTTAA | 1.01 ± 0.021 |
| TAGGGTTTGG | 0.992 ± 0.014 |
| TAGGTAAATC | 1.01 ± 0.024 |
| TAGGTAAGAT | 0.993 ± 0.015 |
| TAGGTAGTTG | 0.952 ± 0.051 |
| TAGGTATTCA | 0.9988 ± 0.0046 |
| TAGGTCCAAT | 1.01 ± 0.015 |

| Sequence | switch fluorescence ratio |
| --- | --- |
| TAGGTCCGTT | 0.988 ± 0.031 |
| TAGGTCTGTG | 0.987 ± 0.014 |
| TAGGTGAGGG | 1.11 ± 0.16 |
| TAGGTGGAAA | 0.992 ± 0.042 |
| TAGGTGGGGC | 0.996 ± 0.03 |
| TAGGTGGTTG | 1 ± 0.03 |
| TAGGTTATTG | 0.995 ± 0.024 |
| TAGGTTCGAC | 0.972 ± 0.031 |
| TAGGTTGAAC | 0.974 ± 0.05 |
| TAGGTTGATG | 0.981 ± 0.035 |
| TAGGTTGTGG | 0.994 ± 0.016 |
| TAGGTTTGCA | 1.02 ± 0.039 |
| TAGTAAGTCA | 0.976 ± 0.023 |
| TAGTAATGGT | 1.032 ± 0.0084 |
| TAGTACGGAT | 1.01 ± 0.007 |
| TAGTACTAGA | 1.03 ± 0.02 |
| TAGTACTATC | 0.993 ± 0.021 |
| TAGTAGACTC | 1.46 ± 0.75 |
| TAGTAGGGGG | 0.9691 ± 0.0061 |
| TAGTAGTGTG | 0.9625 ± 0.001 |
| TAGTATAG | 0.9745 ± 0.0045 |
| TAGTATTGTA | 1 ± 0.039 |
| TAGTCGGAGA | 1.01 ± 0.019 |
| TAGTCGTCGT | 1.02 ± 0.0021 |
| TAGTCTTGGG | 1.001 ± 0.0026 |

| Sequence | switch fluorescence ratio |
| --- | --- |
| TAGTGGGAGA | 1.03 ± 0.029 |
| TAGTGGGCGG | 1.07 ± 0.046 |
| TAGTGGGGGT | 1.01 ± 0.022 |
| TAGTGTAGGA | 1 ± 0.034 |
| TAGTGTCAGG | 0.988 ± 0.038 |
| TAGTGTTGGT | 0.975 ± 0.016 |
| TAGTTAGGCA | 0.9819 ± 0.0053 |
| TAGTTAGTGT | 0.981 ± 0.013 |
| TAGTTATTTA | 0.99 ± 0.033 |
| TAGTTATTTT | 1.01 ± 0.021 |
| TAGTTCGGTG | 0.988 ± 0.042 |
| TAGTTGAGCT | 0.9997 ± 0.0061 |
| TAGTTGCATT | 0.994 ± 0.003 |
| TAGTTGGGGT | 1 ± 0.03 |
| TAGTTGGTCT | 0.974 ± 0.028 |
| TAGTTGTTTT | 1 ± 0.04 |
| TAGTTTAGGT | 0.9964 ± 0.0051 |
| TAGTTTTAAA | 1.02 ± 0.044 |
| TAGTTTTATA | 1.016 ± 0.009 |
| TAGTTTTGAT | 0.963 ± 0.029 |
| TAGTTTTTTG | 0.993 ± 0.053 |
| TATAAAAAGC | 1 ± 0.013 |
| TATAAAAGTC | 0.992 ± 0.023 |
| TATAAAATTC | 1.24 ± 0.43 |
| TATAAATGTT | 0.9936 ± 0.0065 |
